Where a chain is given by its changes, count along the chain named.
What was measured:
[1] = target: T1, human apolipoprotein C1, common form (m/z=6631)
T1 chain: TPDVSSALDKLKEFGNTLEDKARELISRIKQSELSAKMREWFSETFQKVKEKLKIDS

[2] = target: plasma peptide at m/z=5082±4
[3] = target: T2, T45S variant of human apolipoprotein C1 (low mass variant, m/z=6617/6618)
T2 chain: T1 chain with T45S

B1: hog kidney dipeptidyl peptidase IV (DPPase IV), purchased from the Sigma Chemical Company (protein)
chain: DSRRTYTLTDYLKSTFRVKFYTLQWISDHEYLYKQENNILLFNAEYGNSSIFLENSTFDELGYSTNDYSVSPDRQFILFEYNYVKQWRHSYTASYDIYDLNKRQLITEERIPNNTQWITWSPVGHKLAYVWNNDIYVKNEPNLSSQRITWTGKENVIYNGVTDWVYEEEVFSAYSALWWSPNGTFLAYAQFNDTEVPLIEYSFYSDESLQYPKTVRIPYPKAGAENPTVKFFVVDTRTLSPNASVTSYQIVPPASVLIGDHYLCGVTWVTEERISLQWIRRAQNYSIIDICDYDESTGRWISSVARQHIEISTTGWVGRFRPAEPHFTSDGNSFYKIISNEEGYKHICHFQTDKSNCTFITKGAWEVIGIEALTSDYLYYISNEHKGMPGGRNLYRIQLNDYTKVTCLSCELNPERCQYYSASFSNKAKYYQLRCFGPGLPLYTLHSSSSDKELRVLEDNSALDKMLQDVQMPSKKLDVINLHGTKFWYQMILPPHFDKSKKYPLLIEVYAGPCSQKVDTVFRLSWATYLASTENIIVASFDGRGSGYQGDKIMHAINRRLGTFEVEDQIEATRQFSKMGFVDDKRIAIWGWSYGGYVTSMVLGAGSGVFKCGIAVAPVSKWEYYDSVYTERYMGLPTPEDNLDYYRNSTVMSRAENFKQVEYLLIHGTADDNVHFQQSAQLSKALVDAGVDFQTMWYTDEDHGIASNMAHQHIYTHMSHFLKQCFSLP
MALDI-TOF profile after incubation of human plasma with the enzyme (conversion of the 6631 peak to the 6433 peak) [1]: The enzyme converted all of the material in the peak at 6631 to material in the 6433 peak | rate of enzyme cleavage (m/z=6631 conversion to m/z=6433), reference for the T45S variant [1]: degradation of the more common form of apolipoprotein C1 (m/z=6631 conversion to m/z=6433) | MALDI-TOF profile after 2 hours of digestion of diluted plasma with 1 unit of enzyme [2]: The 5082 peak had been completely digested to the 4885 peak | rate of enzyme cleavage (m/z=6618 conversion to m/z=6420) relative to the common form of apolipoprotein C1 [3]: 3.1 times the rate of degradation of the more common form of apolipoprotein C1
